The record followed here is the supplement of paper PMC9112550, “Optimization of the antimicrobial peptide Bac7 by deep mutational scanning” (BMC Biology, 2022).
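Note: peptides expressed intracellularly from a pBAD plasmid library in pooled LB shake-flask culture, induced with 0.3% L-arabinose, DNA abundance read by NGS, three biological replicates, DESeq2 with apeglm shrinkage.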

This data set deals with Escherichia coli TOP10. The data set is described as follows: shrunken log2 fold change of peptide-encoding DNA abundance (4.5 h post-induction vs induction); higher = less antimicrobial activity (less host growth inhibition). The following applies: time post-induction: 4.5 h; library: site-saturation at positions 5, 18, 19, 20.
Regarding RRIRCRPPRLPRPRPRPSNWPRP, the “shrunken log2 fold change” value was found to be 0.0114.
As for RRIRKRPPRLPRPRPRPVWRPRP, the “shrunken log2 fold change” value came to 0.0611.
For RRIRGRPPRLPRPRPRPMWNPRP, the “shrunken log2 fold change” value turned out to be 0.557.
Under RRIRKRPPRLPRPRPRPKEGPRP stands 0.0503; under RRIRARPPRLPRPRPRPPSAPRP, 0.827; under RRIRIRPPRLPRPRPRPVMGPRP, -0.718.
On to RRIRLRPPRLPRPRPRPLWPPRP, for which the “shrunken log2 fold change” value was found to be 0.302.
Turning to RRIRSRPPRLPRPRPRPPMEPRP, the “shrunken log2 fold change” value was -0.117.
Take RRIRHRPPRLPRPRPRPIHYPRP: the “shrunken log2 fold change” value is -0.0138.
Consider RRIRCRPPRLPRPRPRPYNHPRP, for which the “shrunken log2 fold change” value is -0.416.
Turning to RRIRIRPPRLPRPRPRPFQQPRP, the “shrunken log2 fold change” value is -0.0967.
As to RRIRVRPPRLPRPRPRPEKPPRP, the “shrunken log2 fold change” value was found to be 0.00308.
The figure for RRIRWRPPRLPRPRPRPPCMPRP is 0.00553; for RRIRTRPPRLPRPRPRPPMKPRP it is -0.112.
Consider RRIRSRPPRLPRPRPRPMIFPRP, for which the “shrunken log2 fold change” value is -0.325.
For the sequence RRIRERPPRLPRPRPRPHHIPRP, the “shrunken log2 fold change” value is -0.0669.
As to RRIRMRPPRLPRPRPRPEGEPRP, the “shrunken log2 fold change” value was found to be 0.123.
The figure for RRIRTRPPRLPRPRPRPDEFPRP is -0.00523; for RRIRDRPPRLPRPRPRPRLFPRP it is 0.653; for RRIRPRPPRLPRPRPRPSSVPRP it is 0.0854.
In the case of RRIRERPPRLPRPRPRPLGAPRP, the “shrunken log2 fold change” value is -0.159.
The figure for RRIRVRPPRLPRPRPRPDQAPRP is -0.038; for RRIRKRPPRLPRPRPRPCSRPRP it is 0.015; for RRIRIRPPRLPRPRPRPCYCPRP it is -0.0457.
For RRIRYRPPRLPRPRPRPMIFPRP, the “shrunken log2 fold change” value was -1.43.
RRIRPRPPRLPRPRPRPGVNPRP: the “shrunken log2 fold change” value was -0.342.
As to RRIRIRPPRLPRPRPRPGAGPRP, the “shrunken log2 fold change” value is 0.29.
In the case of RRIRERPPRLPRPRPRPKQAPRP, the “shrunken log2 fold change” value stood at 0.156.
In the case of RRIRHRPPRLPRPRPRPVEWPRP, the “shrunken log2 fold change” value was 0.123.
Under RRIRCRPPRLPRPRPRPPHGPRP stands 0.499; under RRIRARPPRLPRPRPRPGVVPRP, 0.645; under RRIRLRPPRLPRPRPRPDELPRP, 0.00705.
Consider RRIRRRPPRLPRPRPRPRGWPRP, for which the “shrunken log2 fold change” value stood at 0.979.
For the sequence RRIRSRPPRLPRPRPRPAPLPRP, the “shrunken log2 fold change” value amounted to 0.163.
RRIRDRPPRLPRPRPRPWGKPRP: the “shrunken log2 fold change” value was -0.194.
Under RRIRWRPPRLPRPRPRPITRPRP stands -0.0637; under RRIRLRPPRLPRPRPRPKLYPRP, 0.0148; under RRIRTRPPRLPRPRPRPQLDPRP, -0.0457.
Turning to RRIRFRPPRLPRPRPRPCVAPRP, the “shrunken log2 fold change” value was -0.201.
The figure for RRIRTRPPRLPRPRPRPWDCPRP is -0.000687; for RRIRIRPPRLPRPRPRPEMDPRP it is -0.277.
In the case of RRIRQRPPRLPRPRPRPVPNPRP, the “shrunken log2 fold change” value was found to be 0.154.
In the case of RRIRIRPPRLPRPRPRPHHEPRP, the “shrunken log2 fold change” value was -0.0701.
RRIRKRPPRLPRPRPRPDIKPRP: the “shrunken log2 fold change” value worked out at 0.137.
For the sequence RRIRERPPRLPRPRPRPHRGPRP, the “shrunken log2 fold change” value was 0.0526.
Under RRIRSRPPRLPRPRPRPCFAPRP stands 0.598.
As to RRIRFRPPRLPRPRPRPKNEPRP, the “shrunken log2 fold change” value is -0.137.
Under RRIRHRPPRLPRPRPRPWRPPRP stands 0.29; under RRIRPRPPRLPRPRPRPNDWPRP, 0.0287; under RRIRTRPPRLPRPRPRPMWMPRP, -0.177.
For RRIRFRPPRLPRPRPRPHKKPRP, the “shrunken log2 fold change” value is -0.369.
As for RRIRSRPPRLPRPRPRPRIIPRP, the “shrunken log2 fold change” value is -0.712.
As for RRIRNRPPRLPRPRPRPASCPRP, the “shrunken log2 fold change” value was -0.233.
As to RRIRQRPPRLPRPRPRPNVSPRP, the “shrunken log2 fold change” value was found to be 0.00422.
Under RRIRARPPRLPRPRPRPTEGPRP stands 0.941; under RRIRERPPRLPRPRPRPWTTPRP, -0.0139; under RRIRTRPPRLPRPRPRPTLIPRP, -0.108.
Turning to RRIRPRPPRLPRPRPRPPKMPRP, the “shrunken log2 fold change” value was 0.401.
Consider RRIRARPPRLPRPRPRPVIHPRP, for which the “shrunken log2 fold change” value is -0.307.
With RRIRQRPPRLPRPRPRPTSKPRP, the “shrunken log2 fold change” value is -0.189.
For RRIRCRPPRLPRPRPRPKSQPRP, the “shrunken log2 fold change” value was 0.276.
On to RRIRWRPPRLPRPRPRPMFFPRP, for which the “shrunken log2 fold change” value stood at 0.111.
On to RRIRYRPPRLPRPRPRPRNSPRP, for which the “shrunken log2 fold change” value came to 0.022.
For RRIRIRPPRLPRPRPRPNPMPRP, the “shrunken log2 fold change” value is -0.169.
Regarding RRIRMRPPRLPRPRPRPRYVPRP, the “shrunken log2 fold change” value is -0.18.
As for RRIRWRPPRLPRPRPRPAFNPRP, the “shrunken log2 fold change” value is -0.116.
RRIRCRPPRLPRPRPRPPLIPRP: the “shrunken log2 fold change” value was -0.000572.
Regarding RRIRHRPPRLPRPRPRPSEIPRP, the “shrunken log2 fold change” value is -0.0493.
In the case of RRIRSRPPRLPRPRPRPVSRPRP, the “shrunken log2 fold change” value is -0.0166.
Regarding RRIRLRPPRLPRPRPRPSGDPRP, the “shrunken log2 fold change” value came to 0.0305.
Under RRIRERPPRLPRPRPRPWITPRP stands -0.00674; under RRIRHRPPRLPRPRPRPAQCPRP, 0.101; under RRIRQRPPRLPRPRPRPAKDPRP, 0.0171.
With RRIRGRPPRLPRPRPRPHTKPRP, the “shrunken log2 fold change” value was 0.104.
Take RRIRVRPPRLPRPRPRPFTKPRP: the “shrunken log2 fold change” value was -0.79.
In the case of RRIRPRPPRLPRPRPRPFMLPRP, the “shrunken log2 fold change” value is -0.378.
On to RRIRVRPPRLPRPRPRPKLCPRP, for which the “shrunken log2 fold change” value is -0.0766.
As for RRIRVRPPRLPRPRPRPSDQPRP, the “shrunken log2 fold change” value is -0.669.
Turning to RRIRARPPRLPRPRPRPVWCPRP, the “shrunken log2 fold change” value turned out to be 0.293.
On to RRIRNRPPRLPRPRPRPFNMPRP, for which the “shrunken log2 fold change” value was -0.149.
With RRIRIRPPRLPRPRPRPHGFPRP, the “shrunken log2 fold change” value was -0.383.
With RRIRDRPPRLPRPRPRPNHIPRP, the “shrunken log2 fold change” value is -1.
RRIRSRPPRLPRPRPRPTNNPRP: the “shrunken log2 fold change” value is -0.455.
With RRIRTRPPRLPRPRPRPYMQPRP, the “shrunken log2 fold change” value is -0.298.
With RRIRYRPPRLPRPRPRPRIEPRP, the “shrunken log2 fold change” value is 0.0242.
Under RRIRARPPRLPRPRPRPFYKPRP stands -0.009; under RRIRTRPPRLPRPRPRPAGQPRP, -0.109; under RRIRVRPPRLPRPRPRPDEVPRP, 0.0201.
Consider RRIRVRPPRLPRPRPRPQIRPRP, for which the “shrunken log2 fold change” value was -0.305.
As to RRIRVRPPRLPRPRPRPYRCPRP, the “shrunken log2 fold change” value is -0.0108.
For RRIRFRPPRLPRPRPRPLDEPRP, the “shrunken log2 fold change” value is -0.132.
